Reference: patent publication US20240343791A1 (YUANPU BIOTECHNOLOGY WUHAN, published 2024)

Biological target: T1, human VEGFC (Cat. No. Z03286, Genscript) (human, UniProt P49767 112-227, limits assumed)
T1 construct: Bought protein; also called VC
T1 sequence (looked up): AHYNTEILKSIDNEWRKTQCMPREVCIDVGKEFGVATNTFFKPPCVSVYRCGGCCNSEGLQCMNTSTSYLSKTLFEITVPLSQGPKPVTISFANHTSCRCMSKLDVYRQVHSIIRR
Assay: SPR (Biacore), protein captured on protein A chip, VEGFC as analyte, 25 C
Experimental: Human VEGFC (Cat. No.: Z03286-10 μg, Genscript, China) solutions with concentrations of 10, 5, 2.5, 1.25, 0.63, 0.31, 0.16, 0.08, and 0 (blank) nM were produced by diluted into a running buffer. Each analysis cycle comprises: (1) capturing the bispecific protein on flow pool 2 (Fc2), (2) injecting the VEGFC solution onto flow cells 1 and 2 (Fc1 and Fc2) at a rate of 30 μL/minute (for 120 seconds), (3) allowing 1×HBS-EP+buffer to flow at 30 μL/minute through the chip for 360 seconds to monitor the dissociation phase, (4) injecting a 10 mM glycine hydrochloride buffer, pH 1.5, to allow surface regeneration of the chip. The data was processed by Biacore™ Insight Evaluation software, using standard double reference and fitting with a 1:1 binding model, to determine the binding rate (kₐ) and dissociation rate (kd).

Kd: 0.562 nM | koff: 0.0033 s⁻¹ | kon: 5.87e+06 M⁻¹ s⁻¹
B1: OPT-302 (other, not shown: a dimerising Fc or GST; small tags and cut ends)
chain: YSMTPPTLNITEESHVIDTGDSLSISCRGQHPLEWAWPGAQEAPATGDKDSEDTGVVRDCEGTDARPYCKVLLLHEVHAQDTGSYVCYYKYIKARIEGTTAASSYVFVRDFEQPFINKPDTLLVNRKDAMWVPCLVSIPGLNVTLRSQSSVLWPDGQEVVWDDRRGMLVSTPLLHDALYLQCETTWGDQDFLSNPFLVHITGNELYDIQLLPRKSLELLVGEKLVLNCTVWAEFNSGVTFDWDYPGKQAERGKWVPERRSQQTHTELSSILTIHNVSQHDLGSYVCKANNGIQRFRESTEVIVHE
notes: captured on protein A chip
